Source: paper PMC4873810

Molecular target: mouse embryonic heparan sulfate (HS) coupled to HiTrap column
Experiment: HS affinity chromatography (FPLC)
Conditions: 0-1.5 M NaCl gradient from fraction 5 to 14, parent: est. 100, read off a plot
[1] = value is the height of the salt-eluted peak at fraction 12

| Substance | response [1] | response (value is the height of the salt-eluted peak at about fraction 12) |
| --- | --- | --- |
| Scube2 (signal peptide, CUB domain, epidermal growth factor (EGF)-like protein 2), full-length, FLAG-tagged (from UniProt Q9NQ36) K608A; R609A; K612A; R613A; R615A; K616A; R619A; R622A; K623A; H626A; R627A; K643A; K644A; R647A | 11% |  |
| Scube2 (signal peptide, CUB domain, epidermal growth factor (EGF)-like protein 2), full-length, FLAG-tagged (from UniProt Q9NQ36) K608E; R609E; K612E; R613E; R615E; K616E; R619E; R622E; K623E; H626E; R627E | 4% |  |
| Spacer (isolated Scube2 spacer domain) K608A; R609A; K612A; R613A; R615A; K616A; R619A; R622A; K623A; H626A; R627A; K643A; K644A; R647A |  | 5% |
